The record followed here is article PMC10611974.

The target of this assay is APOBEC3B (A3B) C-terminal domain (ctd)-Cas9n-Ugi (human | S. pyogenes | not stated).

B1: Epstein-Barr virus ribonucleotide reductase large subunit, BORF2 (natural protein)
chain: MATTSHVEHELLSKLIDELKVKANSDPEADVLAGRLLHRLKAESVTHTVAEYLEVFSDKFYDEEFFQMHRDELETRVSAFAQSPAYERIVSSGYLSALRYYDTYLYVGRSGKQESVQHFYMRLAGFCASTTCLYAGLRAALQRARPEIESDMEVFDYYFEHLTSQTVCCSTPFMRFAGVENSTLASCILTTPDLSSEWDVTQALYRHLGRYLFQRAGVGVGVTGAGQDGKHISLLMRMINSHVEYHNYGCKRPVSVAAYMEPWHSQIFKFLETKLPENHERCPGIFTGLFVPELFFKLFRDTPWSDWYLFDPKDAGDLERLYGEEFEREYYRLVTAGKFCGRVSIKSLMFSIVNCAVKAGSPFILLKEACNAHFWRDLQGEAMNAANLCAEVLQPSRKSVATCNLANICLPRCLVNAPLAVRAQRADTQGDELLLALPRLSVTLPGEGAVGDGFSLARLRDATQCATFVVACSILQGSPTYDSRDMASMGLGVQGLADVFADLGWQYTDPPSRSLNKEIFEHMYFTALCTSSLIGLHTRKIFPGFKQSKYAGGWFHWHDWAGTDLSIPREIWSRLSERIVRDGLFNSQFIALMPTSGCAQVTGCSDAFYPFYANASTKVTNKEEALRPNRSFWRHVRLDDREALNLVGGRVSCLPEALRQRYLRFQTAFDYNQEDLIQMSRDRAPFVDQSQSHSLFLREEDAARASTLANLLVRSYELGLKTIMYYCRIEKAADLGVMECKASAALSVPREEQNERSPAEQMPPRPMEPAQVAGPVDIMSKGPGEGPGGWCVPGGLEVCYKYRQLFSEDDLLETDGFTERACESCQ
With B1, the inhibition of A3Bctd CBE editing of the chromosomally integrated TC reporter (eGFP) in 293T cells, flow cytometry, 72 h post-transfection is 4.9 fold.
